Measured values taken from US20130230540A1 (DOMANTIS, published 2013).
Values belong to the binder of their own block, whether it stands above or below them.

Columns and labels:
[1] = biological target: T1, recombinant human CD28/Fc Chimera (R&D Systems) (human, UniProt P10747 19-152); assay: SPR (BIAcore), CM5 chip coated with 12500 RU of CD28-Fc, purified dAb, concentration not given
T1 construct: Bought reagent (R&D Systems, Abingdon, UK); not shown: Fc portion of the bought chimera
Source text: (§1) All 58 clones were expressed and purified and tested on the BIAcore against a CM5 chip coated with 12500 RU (response units) of CD28-Fc. […] The protein concentrations used for BIAcore analysis were: […]

[2] = biological target: T1, recombinant human CD28/Fc Chimera (R&D …); assay: SPR (BIAcore), CM5 chip coated with 12500 RU CD28-Fc; dAb injected at 13.8 µM
Source text: as §1

[3] = biological target: T1, recombinant human CD28/Fc Chimera (R&D …); assay: SPR (BIAcore), CM5 chip coated with 12500 RU CD28-Fc; dAb injected at 57.5 µM
Source text: as §1

[4] = biological target: T1, recombinant human CD28/Fc Chimera (R&D …); assay: SPR (BIAcore), CM5 chip coated with 12500 RU CD28-Fc; dAb injected at 42.3 µM
Source text: as §1

[5] = biological target: T1, recombinant human CD28/Fc Chimera (R&D …); assay: SPR (BIAcore), CM5 chip coated with 12500 RU CD28-Fc; dAb injected at 16.6 µM
Source text: as §1

[6] = biological target: T1, recombinant human CD28/Fc Chimera (R&D …); assay: SPR (BIAcore), CM5 chip coated with 12500 RU CD28-Fc; dAb injected at 68.1 µM
Source text: as §1

[7] = biological target: T1, recombinant human CD28/Fc Chimera (R&D …); assay: SPR (BIAcore), CM5 chip coated with 12500 RU CD28-Fc; dAb injected at 19.4 µM
Source text: as §1

[8] = biological target: T1, recombinant human CD28/Fc Chimera (R&D …); assay: SPR (BIAcore), CM5 chip coated with 12500 RU CD28-Fc; dAb injected at 14.7 µM
Source text: as §1

binding result [6]: binds
B6: DOM21-6 (other)
VH: EVQLLESGGGLVQPGGSLRLSCAASGFTFENYGMAWVRQAPGKGLEWVSNIGRAGSVTYYADSVKGRFTISRDNSKNTLYLQMNSLRAEDTAVYYCAKVQSWRTFDYWGQGTLVTVSS
notes: Human VH antibody single variable domain (dAb), expressed from pDOM5 and purified

binding result [1]: binds
B7: DOM21-44 (other)
VH: EVQLLESGGGLVQPGGSLRLSCAASGFTFARYTMVWVRQAPGKGLEWVSAIHFDGRTTYYADSVKGRFTISRDNSKNTLYLQMNSLRAEDTAVYYCAKNEWASLKHFDYWGQGTLVTVSS
notes: as for B6

binding result [7]: binds
B8: DOM21-22 (other)
VH: EVQLLESGGGLVQPGGSLRLSCAASGFTFELYQMGWVRQAPGKGLEWVSTIMPSGNLTYYADSVKGRFTISRDNSKNTLYLQMNSLRAEDTAVYYCAKMWSLNLGFHAAFDYWGQGTLVTVSS
notes: as for B6

binding result [8]: binds
B9: DOM21-27 (other)
VL: DIQMTQSPSSLSASVGDRVTITCRASQSIGTGLRWYQQKPGKAPMLLIYRASILQSGVPSRFSGSGSGTDFTLTISSLQPEDFATYYCQQTTLQPFTFSQGTKVEIKR
notes: Human Vkappa antibody single variable domain (dAb), expressed from pDOM5 and purified

Further lines, the binder ahead of its results:

B1: DOM21-38 (other)
VH: EVQLLESGGGLVQPGGSLRLSCAASGFTFILYDMQWVRQAPGKGLEWVSRISANGHDTYYADSVKGRFTISRDNSKNTLYLQMNSLRAEDTAVYYCAKGPHYLFDYWGQGTLVTVSS
notes: as for B6
binding result [1]: binds

B2: DOM21-18 (other)
VL: DIQMTQSPSSLSASVGDRVTITCRASQYIGTSLNWYQQKPGKAPKLLTYQASLLQSGVPSRFSGSGSGTDFTLTISSLQPEDFATYYCQQLALRPMTFGQGTKVEIKR
notes: Human Vkappa antibody single variable domain (dAb), DPK9/Jk1 framework, expressed from pDOM5 and purified
binding result [2]: binds

B3: DOM21-20 (other)
VH: EVQLLESGGGLVQPGGSLRLSCAASGFTFPAYSMIWVRQAPGKGLEWVSTISPLGYSTYYADSVKGRFTISRDNSKNTLYLQMNSLRAEDTAVYYCAEQTAYLNRATEHFDYWGQGTLVTVSS
notes: as for B6
binding result [3]: binds

B4: DOM21-4 (other)
VH: EVQLLESGGGLVQPGGSLRLSCAASGFTFSRYHMAWVRQAPGKGLEWVSVIDSLGLQTYYADSVKGRFTISRDNSKNTLYLQMNSLRAEDTAVYYCAEYGGAFDYWGQGTLVTVSS
notes: Human VH antibody single variable domain (dAb), DP47/JH4b framework, expressed from pDOM5 and purified
binding result [4]: binds

B5: DOM21-28 (other)
VL: DIQMTQSPSSLSASVGDRVTITCRASQSISHSLVWYQQKPGKAPKLLIYWASLLQSGVPSRFSGSGSGTDFTLTISSLQPEDFATYYCQQGMTTPFTFGQGTKVEIKR
notes: as for B9
binding result [5]: binds
